The values below come from the domain aggregation screens of Martell et al. (2025).
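Note: 20 min heating vs room temperature control held 20 min.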

This series is described as follows: soluble fraction after stress (log2 fold change); higher = more stays soluble; pooled small domains, quantitative proteomics. The conditions noted are these: stress: 75 degC.
As for “HMSRYQDIANDIEKDIIEKKYTRKLPEQFELAQKYQTSRVTIVHALKILQNKKLIRTVKGHGTFITS”, the “soluble fraction (log2)” value is -1.84. The value for “HMSSDEDELESIIKRVFADNPIELERLQNGEDKLIKFFMGLVMRQTKGKYPPKIIIDLLNKS” was -0.599. “HMSSDLDQYMKNIRKQHNLSKREFAKQLGISAATIVRIENGITVSPSKNLISKLAYYLQKSEVEILQDIQS”: the “soluble fraction (log2)” value was -1.16.

As for “HMSSEMATLRSIVDNKQAEKVHGMMVDMFTASAMVQVYDKVNDENQAKMREMLKTQKGFQRMADFALSKI”, the “soluble fraction (log2)” value was -0.143. Take “HMSSEPASLVGKTGVAASVLRPSGRVEVNGEYYDAVSINGFIEKGESVFVHKYENAQLYVSKNSE”: the “soluble fraction (log2)” value was 0.162. Take “HMSSESIKTDKNVGVGSTLEELEKAYGSDYTLSGKMYRYYQDDNSKYMYFFILNDVVQYYGYGIDV”: the “soluble fraction (log2)” value was -1.65. Consider “HMSSIDLTARSGRAALKHRLSLLGYEFSKIELETLYVRFIELADEKKLLHDEDLIELVKEKN”, for which the “soluble fraction (log2)” value was -3.12. In the case of “HMSSIRDVVPEGLLSDREKLVLVLAFDRDLDGPDMARTLGISANTVRVLKARALKKLRQAGIQP”, the “soluble fraction (log2)” value was -0.954. The same measure for “HMSSIVLTARSGRAALAYRVKSIGVDLSKDQLDLVYKTFLGFADKKKEIIDTDIPQILKASGI”: -2.74; for “HMSSIYVYPNPTANRIYIQADNIKKAELFDLMGRKVRSTNQPQIDISRLSRGNYILQVKTQNNTQSFKIIK”: -0.705. As for “HMSSKAVLEKFEALFIDQMLQSMRKATVRSELFDSEGIKLYESLFDKEISEELAKSGGLGLTKDLEQQL”, the “soluble fraction (log2)” value is -1.36. Turning to “HMSSKFKIVGEILSIKKSDILYIIEILSNNEVVKATAVEDEIKDLKIGDKILLSSKAFNPIVNK”, the “soluble fraction (log2)” value was -2.29. The same measure for “HMSSLTDNFVKALSYYLALSGKSKKEVADGIGIPPTTFSSWSNGKHLPDMDRLQNLATYLGAPVSEFFDFT”: 0.238. The value for “HMSSPVGIAQATTYVYVRAGHSMQAAKVGVLSPGEKVGVTGRSAQGFSEVVYNGVHRWVGSRYLSPT” was -4.43.

As for “HMSSQWWYSAGGERKGPVDFATLRGLYVQGAIDGRTLAWREDMQGWEAVNDIPDLEPLRRAVPPEL”, the “soluble fraction (log2)” value was -0.0747. The value for “HMSSRSLSYSDFIERVDAGQVSKVVMDGERLVVVGQDGTSYVTIKPPGDQVTENLSRELISKGVEVEAEPQ” was -0.0305; that for “HMSSRSLTYSDFIERVDAGQVDAVTLDGERIVIRAKDGNTYVAIKPQGEDVTGSLTRDLIAKGVDVEAEPQ” was 0.204; that for “HMSSSDYDVYNKAINLMLNLLKEPKSIEEVTASLNITKSQAITWINRALNEGKIIKTNRPVRYVVNN” was -1.39. As for “HMSSSYMVRITTSVLNVRKGPGTNYGITTKVKKGEVYTIVAEEKNGNTTWGKLKSGTGYISLGYTER”, the “soluble fraction (log2)” value was -1.21. The same measure for “HMSSSYVYGGNGEIVILSDVSKHLNVYNLNGQKVTDVNLTAGELQRISIATGIYVVGGKKIVV”: -3.52; for “HMSSVGELEVGNIFEGTVNSVRGGKVLLALGNGQMVLAQMDGRVNITPGSSMFFQVKSNDGETVAIRPYTG”: -0.247.

For the sequence “HMSSWAEGLTERERHTLMWITKGLSNKLIARELGISDSTVKVYVKNLLRKLNVNSRLELAAWVHTHPL”, the “soluble fraction (log2)” value is -1.2.

As to “HMSSYTQEDVRSGILYMAQLKPRNIEEFVSTLAFSKDDIMDNLSFLVDEGFLKFDADTDTYFNPVPL”, the “soluble fraction (log2)” value was -0.374.

With “HMSTADGGYPSIVINDGRVIDTNLQKLGLDRSWLSAELKRQGKGSEKDIFLMTVNQRREVYISVKEA”, the “soluble fraction (log2)” value was -1.89.

For the sequence “HMSTEAFLGTEGEVVLPLLPDGLGKIRLHVADQDVELPARTGGEPIQIRERVVVVRFRDGIAEVEPAP”, the “soluble fraction (log2)” value worked out at 0.0378. On to “HMSTEDYLKTIYILESQQGVHGSDVARMLKVTRPTVSIALKALEQEGYVWMDESRLVHLTDSGLQIAKDT”, for which the “soluble fraction (log2)” value is -0.914. Consider “HMSTESAHLGERMLNQALRAMHIEPDQITEAHWQKLIRDYGLKKKSEILTDIGLGKRQNVMVAHQLLAMG”, for which the “soluble fraction (log2)” value was -0.539. The same measure for “HMSTFKSYRGKITASSGVNIRTGAGTNYNKNGALTYNSVVTIVDEKKVSGTTWGKLADGRGWISLDYLKK”: -2.04. In the case of “HMSTGGDLTQRERELLGLMARGLSNQEISKRLTIAMPTVKFHVTNILAKLHADNRTEAVLVALKNKLVAL”, the “soluble fraction (log2)” value is -1.02. For the sequence “HMSTINGIEKYLSSGLIPYIGPKTAKRIVEKFGLDTLEIIQYNPERLKEIEGIGDKKLKKIVEAFEEQG”, the “soluble fraction (log2)” value is -0.245. Take “HMSTISPNAFNFLQQNLNKFSDDAEGKMIKDILSKTTYDEYVKNEKSKTDFNSLLRRQTTTGDDNLNRYIN”: the “soluble fraction (log2)” value was -0.00511. Consider “HMSTKEFTIHAGEWSYRVSQKLENLGLVSDAKKFDQYLEDNGYSSKIKIGHYTISKDADFEEIAKEIT”, for which the “soluble fraction (log2)” value is 0.632.

As to “HMSTKRGEILEFLKDFSARKGYAPSVREIMQAVGLKSTASVHYHLSELHKAGLITVDGTKNRAISLA”, the “soluble fraction (log2)” value is -1.11. Take “HMSTMKSKWFVSSNPIAGVMKYQAQRKKDVNAVDSSENREASGQWYTDKEEAQAIVDKLNAEEQIKEAGK”: the “soluble fraction (log2)” value is -0.0426. Take “HMSTMLPFVMRELVELVMKKKALPLGDALYYIYSSKLYKSLLDKSTKLWYSSTLSLYETLEKEKTEEKRRY”: the “soluble fraction (log2)” value is -2.04. The value for “HMSTMTDAQRHLFANKLSQLPEMGKYSHGTESYQQFAVRIAEMLQTPKKFKELYPYLQKVGFKA” was -0.379; that for “HMSTNYVQVLRAALNGVSGRKLAQQYRVSRDTVAILLRQAKIQGWQRAEDLENITEEDLVALLSG” was -2.43. “HMSTPLPTGLPRGTIIEYTVQTDETLAIIAAKFNSTVDDIMTRNKITDPNTIYAGQILKVAINLVTP”: the “soluble fraction (log2)” value was -1.62. On to “HMSTPVPIEGQPTENLNLRDQPSTSGKILTTIPKGKTVTILSEKNANGWYKVSYNGKTGYVSGSYFKVTK”, for which the “soluble fraction (log2)” value came to 0.916. Consider “HMSTSERLKQVMEVKGFNLKTFSEQADIPYRTLQNYILTNREPSAESLAKLHSQLGINLNWLMSGKGEMF”, for which the “soluble fraction (log2)” value was -0.685. Turning to “HMSTSIADNSSITYKVRKGDSLASIAKRHGVNINDVMRWNSVITKASQIQPGDMLTLYVRDS”, the “soluble fraction (log2)” value was found to be 0.148. The value for “HMSTTALLEKMVRYIRTLPVISQVVLSLHYYRGMELREIASELDITESRASQLHTTAVLGIRDLLSSY” was -3.11. In the case of “HMSTTGIVKWFNEEKGFGFITQDQGGADVFVHYRAIASEGFKTLAEGQKVSFEVEQGQKGLQAANVQA”, the “soluble fraction (log2)” value stood at 0.333. The value for “HMSTTHLTASVIKDKVNVRSEADSQNGAIIDKARTGERLLVTDYGNKWTGIVLPDGKRGYIMTEYLQF” was -0.114; that for “HMSTTSYTQFMEDAKAGKIARVDIKGREITVTPTEGSRYVITSPGDLWMVDDLRKDGVQVYGPP” was 0.0558. The same measure for “HMSTTYLNEGDRITLTDSVNIRTSMSETADRVGLAYQGDVVTVIMSYAEGWTKVSWNGQTGYAKTEYL”: -1.52; for “HMSTVIENVFKNFEVYEIKKGDTFYNIEKRFGVNRQELLVLNPELKEGLKLGMVLKIKEIIP”: -3.02. Turning to “HMSTYTETETAYLKAYSAAGVDGKISDSERGILNMTAEALGITVERTTELEAMFNLTVEEEA”, the “soluble fraction (log2)” value is -0.0838.

Take “HMSVDIWTGAQTGNIEAVKQHLADGVDVNSKSDIGRTALDVAIAFKQPLITDLLRKHGGKTRDELKAAE”: the “soluble fraction (log2)” value was ≥ 1.04. For “HMSVEVADITRAYYEGVGFEWWIRSVRLDPNELIVDNDDEGKLYRVPFEINGEEVTFGDPVEVKIRYE”, the “soluble fraction (log2)” value is -0.995.
